# Reference: publication PMC4011162, “A gene horizontally transferred from bacteria protects arthropods from host plant cyanide poisoning” (eLife, 2014)
# What was measured:
# Tu-CAS = target: T1, Tu-CAS (Tetranychus urticae, UniProt T1KF23); experiment: cofactor dependence of enzymatic activity; format: biochemical; conditions: 500 µM pyridoxal-5'-phosphate in assay; Schiff base lysine conserved by sequence
# T1 construct: gene 107363798; tag removal not mentioned; PLP-dependent, predicted cytosolic
# T1 sequence (T1KF23 1-320): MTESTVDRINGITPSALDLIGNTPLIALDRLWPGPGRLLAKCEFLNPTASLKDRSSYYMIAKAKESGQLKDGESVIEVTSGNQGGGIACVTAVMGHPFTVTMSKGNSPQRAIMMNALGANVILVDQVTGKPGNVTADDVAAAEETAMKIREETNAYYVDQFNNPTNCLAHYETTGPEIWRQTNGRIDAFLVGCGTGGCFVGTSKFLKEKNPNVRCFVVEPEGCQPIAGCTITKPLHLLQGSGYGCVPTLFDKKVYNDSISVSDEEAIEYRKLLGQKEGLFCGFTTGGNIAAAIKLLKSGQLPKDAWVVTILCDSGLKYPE
# purified protein [1] = substrate: CC(=O)OC[C@H](N)C(=O)O; experiment: purified protein; conditions: co-substrate sodium sulfide (standard 2 mM); preincubated with 500 µM pyridoxal-5'-phosphate; pH not given
# purified protein [2] = substrate: N[C@@H](CS)C(=O)O; experiment: purified protein; format: biochemical, Tetranychus urticae; conditions: co-substrate sodium cyanide (standard 0.01 M stock), 0.2 M Tris pH 8.5, 37 °C, preincubated with 500 µM pyridoxal-5'-phosphate
Molecule,cofactor dependence of enzymatic activity (Tu-CAS),Km (purified protein [1]),kcat/Km (purified protein [1]),Km (purified protein [2]),kcat/Km (purified protein [2])
Cc1ncc(COP(=O)(O)O)c(C=O)c1O [pyridoxal-5′-phosphate],Enzymatic activity was dependent on pyridoxal-5′-phosphate as a cofactor,,,,
"Tu-CAS (Tetranychus urticae) (protein, tag removal not mentioned; PLP-dependent, predicted cytosolic) MTESTVDRINGITPSALDLIGNTPLIALDRLWPGPGRLLAKCEFLNPTASLKDRSSYYMIAKAKESGQLKDGESVIEVTSGNQGGGIACVTAVMGHPFTVTMSKGNSPQRAIMMNALGANVILVDQVTGKPGNVTADDVAAAEETAMKIREETNAYYVDQFNNPTNCLAHYETTGPEIWRQTNGRIDAFLVGCGTGGCFVGTSKFLKEKNPNVRCFVVEPEGCQPIAGCTITKPLHLLQGSGYGCVPTLFDKKVYNDSISVSDEEAIEYRKLLGQKEGLFCGFTTGGNIAAAIKLLKSGQLPKDAWVVTILCDSGLKYPE",,3170 µM,203 M⁻¹ s⁻¹,312 µM,6840 M⁻¹ s⁻¹
